These results are taken from publication PMC10468207.

Experiment [1] deals with kinase-dead CaMKII (K42R and D135N double mutant) with C-terminal AviTag (human) (UniProt Q9UQM7). The experiment can be described thus: mass photometry; 400 nM CaMKII, basal conditions; 25 mM Tris pH 8, 150 mM KCl, 1 mM TCEP; Refeyn One MP.
For experiment [2] the target is unchanged. The experiment can be described thus: SEC; Superose 6 10/300 increase column; SEC buffer 25 mM Tris pH 8, 250 mM NaCl, 1% glycerol, 1 mM TCEP; assembly of subunits into the holoenzyme. (SEC sorts molecules by how far they enter the pores of the column.)
The target is the same in experiment [3]. The experiment can be described thus: mass photometry; 400 nM CaMKII, activating conditions (8 µM CaMKII incubated with 1.5 µM Ca2+:CaM, 1 mM ATP, 2 mM MgCl2 for 5 min at room temperature, then diluted); 25 mM Tris pH 8, 150 mM KCl, 1 mM TCEP.
The target of experiment [4] is CaMKII^F394BzF (human) (UniProt Q9UQM7). The experiment can be described thus: SEC; Superose 6 10/300 increase column; SEC buffer 25 mM Tris pH 8, 250 mM NaCl, 1% glycerol, 1 mM TCEP; assembly of subunits into the holoenzyme.

What is called stoichiometry N is the number of molecules, sites or subunits per partner or assembly. For the substance “kinase-dead CaMKII (K42R and D135N double mutant) with C-terminal AviTag (from UniProt Q9UQM7 6-478) (enzyme)”, the figures for the stoichiometry N in experiment [1], in experiment [2] and in experiment [3] were 10, 12 and 4, respectively. In experiment [3], this substance showed a percent in the tetramer peak of 12%.
Take “CaMKII^F394BzF (from UniProt Q9UQM7 6-478) (enzyme)”: the stoichiometry N in experiment [4] was found to be 12.
